Source: patent US20220332804A1 (CSL INNOVATION, published 2022)
Where a chain is given by its changes, count along the chain named.

Columns and labels:
Experiment in all cases: SPR, antibody captured, C2 as analyte;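 also: biacore SPR at 37 °C, anti-C2 mAbs captured via goat anti-human IgG on CM5 chips, double-referenced sensorgrams fit to a 1:1 kinetic or steady-state model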
human C2 R719A = biological target: T1, human C2 R719A (human, UniProt P06681 21-752)
T1 sequence: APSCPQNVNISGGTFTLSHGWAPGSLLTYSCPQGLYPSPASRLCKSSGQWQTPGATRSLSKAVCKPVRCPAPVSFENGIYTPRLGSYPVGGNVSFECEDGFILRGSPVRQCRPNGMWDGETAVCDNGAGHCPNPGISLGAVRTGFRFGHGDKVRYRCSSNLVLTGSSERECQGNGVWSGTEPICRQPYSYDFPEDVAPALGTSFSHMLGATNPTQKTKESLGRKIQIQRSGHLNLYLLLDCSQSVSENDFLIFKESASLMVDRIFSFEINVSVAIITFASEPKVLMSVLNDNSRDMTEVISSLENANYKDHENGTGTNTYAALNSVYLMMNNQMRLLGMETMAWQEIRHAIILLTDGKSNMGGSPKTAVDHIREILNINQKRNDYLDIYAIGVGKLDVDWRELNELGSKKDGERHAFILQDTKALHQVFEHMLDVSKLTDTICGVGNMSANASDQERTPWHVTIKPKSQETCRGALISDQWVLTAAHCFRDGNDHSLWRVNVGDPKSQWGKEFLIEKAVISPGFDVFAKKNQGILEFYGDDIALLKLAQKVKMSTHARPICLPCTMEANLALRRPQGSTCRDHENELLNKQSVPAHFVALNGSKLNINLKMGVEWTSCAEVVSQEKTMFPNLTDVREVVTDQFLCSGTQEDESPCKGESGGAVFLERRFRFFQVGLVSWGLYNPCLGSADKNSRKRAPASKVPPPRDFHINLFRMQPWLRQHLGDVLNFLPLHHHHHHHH

human C2 T442A = biological target: T2, human C2 T442A (human, UniProt P06681 21-752)
T2 sequence: T1 sequence with T422A, A699R

human C2 E490A = biological target: T3, human C2 E490A (human, UniProt P06681 21-752)
T3 sequence: T1 sequence with E470A, A699R

human C2 E645A = biological target: T4, human C2 E645A (human, UniProt P06681 21-752)
T4 sequence: T1 sequence with E625A, A699R

B1: RF16-226 (antibody, human IgG4 S228P, lambda)
heavy: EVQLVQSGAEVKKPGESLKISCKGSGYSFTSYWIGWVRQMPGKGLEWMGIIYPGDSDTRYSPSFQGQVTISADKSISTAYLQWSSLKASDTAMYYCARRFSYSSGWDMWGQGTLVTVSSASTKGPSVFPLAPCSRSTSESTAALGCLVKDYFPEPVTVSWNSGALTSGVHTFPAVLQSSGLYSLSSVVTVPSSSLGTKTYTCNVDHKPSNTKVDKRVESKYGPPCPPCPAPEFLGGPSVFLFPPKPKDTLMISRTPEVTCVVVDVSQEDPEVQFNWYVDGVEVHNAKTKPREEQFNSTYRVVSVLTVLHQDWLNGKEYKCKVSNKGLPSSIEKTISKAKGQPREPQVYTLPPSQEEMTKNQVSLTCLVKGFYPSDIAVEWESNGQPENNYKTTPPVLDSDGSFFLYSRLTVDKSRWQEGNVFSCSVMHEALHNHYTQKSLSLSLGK
light: SYELTQPPSVSVSPGQTARITCSGDALTSKYVAWYQQKSGLAPLLVIYEDTRRPSGIPAKFSGSSSGSVATLTISGAHGDDEADYYCYSTDASGHQRVFGGGTKLTVLSQPKAAPSVTLFPPSSEELQANKATLVCLISDFYPGAVTVAWKADGSPVKAGVETTKPSKQSNNKYAASSYLSLTPEQWKSHRSYSCQVTHEGSTVEKTVAPTECS
notes: pH-dependent anti-C2 antibody from a phage display library; also called WT
For B1, the Kd (human C2 R719A) was 8.5 nM, the Kd (human C2 T442A) was 23.7 nM and the Kd (human C2 E490A) was 15.6 nM. The Kd (human C2 E645A) was 14 nM.
